Laboratory results: patent US9951111B2, “Type I interferon mimetics as therapeutics for cancer, viral infections, and multiple sclerosis” (priority 2011, dated 2018)
Ends that are not written are not given here.

Tests used:
[1] = system: vesicular stomatitis virus (VSV); assay type: cell-based
vaccinia virus [2] = assay type: in vivo, mice (C57BL/6); conditions: i.n. infection; peptides 200 μg or murine IFNα1 2,000 U i.p. for six consecutive days; FIG. 12
[3] = Body weight of mice under IFNα1 or lipo-peptide (FIG. 13); conditions: 5×10^3 U/mouse i.p. on alternate days (peptide 100 μg), day 11 difference p<0.05
EMC virus = assay type: cell-based, encephalomyocarditis (EMC) virus
[4] = system: experimental allergic encephalomyelitis (EAE) in SJL/J mice; experiment: Relapsing/remitting EAE in SJL/J mice immunized with MBP; assay type: in vivo; conditions: 15 μg/mouse i.p. every other day from day 12 post-immunization with MBP; FIG. 6C
[5] = IFN toxicity in vivo: body weight (FIG. 7); conditions: 2,000 U per mouse of IFN mimetic I.P. on alternate days
lymphocytes = experiment: IFN toxicity in vivo: lymphocyte count on blood smears (Table 4); conditions: day 11, i.p. alternate days for ten days, IFN mimetics 2 × 10^3 U in 200 μg per mouse, IFNβ 10^3 U/mouse; for % Reduction (lymphocytes): versus PBS
vaccinia virus [6] = assay type: cell-based

lipo-IFNα1(152-189) (LYLTEKKYSPCAWEVVRAEIMRSLSLSTNLQERLRRKE; also: lipid attached; listed as Homo sapiens)
antiviral activity against vesicular stomatitis virus (VSV) [1]: showed antiviral activity | protection against vaccinia virus lethal infection (survival) (vaccinia virus [2]): inhibited vaccinia virus lethal infection of mice | weight loss [3]: not seen

lipo-IFNβ(150-187) (ILHYLKAKEYSHCAWTIVRVEILRNFYFINRLTGYLRN; also: lipidated; UniProt P01574 150-187, looked up, fragment)
antiviral activity against vesicular stomatitis virus (VSV) [1]: showed antiviral activity

lipo-IFNτ(156-195) (EKGYSDCAWEIVRVEMMRALTSSTTLQKRLTKTGGDLNSP; also: lipid attached)
antiviral activity against vesicular stomatitis virus (VSV) [1]: showed antiviral activity

B1: IFNα1(69-189)R9 (protein)
chain: RRRRRRRRRNQFQKAPAISVLHELIQQIFNLFTTKDSSAAWDEDLLDKFCTELYQQLNDLEACVMQEERVGETPLMNADSILAVKKYFRRITLYLTEKKYSPCAWEVVRAEIMRSLSLSTNLQERLRRKE
antiviral activity against EMC virus (EMC virus): possessed antiviral activity | therapeutic efficacy in EAE (mean daily severity of disease) [4]: essentially complete therapeutic efficacy | body weight change [5]: gained weight | Lymphocytes (%) (lymphocytes): 75 ± 3% | % Reduction (lymphocytes) (lymphocytes): 4%

B2: IFNβ(100-187)R9 (protein)
chain: RRRRRRRRRWNETIVENLLANVYHQINHLKTVLEEKLEKEDFTRGKLMSSLHLKRYYGRILHYLKAKEYSHCAWTIVRVEILRNFYFINRLTGYLRN
antiviral activity against EMC virus (EMC virus): possessed antiviral activity | body weight change [5]: gained weight | Lymphocytes (%) (lymphocytes): 72 ± 5% | % Reduction (lymphocytes) (lymphocytes): 9%

B3: IFNα1(69-189) (protein, listed as Homo sapiens)
chain: NQFQKAPAISVLHELIQQIFNLFTTKDSSAAWDEDLLDKFCTELYQQLNDLEACVMQEERVGETPLMNADSILAVKKYFRRITLYLTEKKYSPCAWEVVRAEIMRSLSLSTNLQERLRRKE
therapeutic efficacy in EAE (mean daily severity of disease) [4]: developed paraplegia

B4: IFNα1 (protein, UniProt P01562 24-189, looked up)
Interferon alpha-1/13: CDLPETHSLDNRRTLMLLAQMSRISPSSCLMDRHDFGFPQEEFDGNQFQKAPAISVLHELIQQIFNLFTTKDSSAAWDEDLLDKFCTELYQQLNDLEACVMQEERVGETPLMNADSILAVKKYFRRITLYLTEKKYSPCAWEVVRAEIMRSLSLSTNLQERLRRKE
protection against vaccinia virus (VV) infection (vaccinia virus [6]): did not protect | protection against vaccinia virus lethal infection (survival) (vaccinia virus [2]): ineffective | weight loss [3]: weight loss seen
